# T1: PD-L2 on CHO-PD-L2 cells (human, UniProt Q9BQ51 20-273)
# T1 sequence: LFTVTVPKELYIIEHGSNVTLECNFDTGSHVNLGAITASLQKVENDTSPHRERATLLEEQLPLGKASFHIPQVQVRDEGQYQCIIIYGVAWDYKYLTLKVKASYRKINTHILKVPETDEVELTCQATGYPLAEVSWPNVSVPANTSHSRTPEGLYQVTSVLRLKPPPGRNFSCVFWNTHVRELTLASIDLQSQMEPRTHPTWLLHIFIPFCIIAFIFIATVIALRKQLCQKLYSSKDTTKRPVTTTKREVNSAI
# T2: Cyno PD-L2-Fc (cyno, UniProt A0A2K5U5Z4 20-220)
# T2 construct: not shown: Fc part
# T2 sequence: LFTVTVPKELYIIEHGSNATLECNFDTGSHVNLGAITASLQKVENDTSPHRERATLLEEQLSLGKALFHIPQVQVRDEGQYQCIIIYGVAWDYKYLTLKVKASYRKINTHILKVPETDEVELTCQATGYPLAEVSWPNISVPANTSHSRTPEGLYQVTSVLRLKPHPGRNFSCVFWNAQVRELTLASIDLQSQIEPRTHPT
# T3: Human PD-L2-Fc (human, UniProt Q9BQ51 20-220)
# T3 construct: also called Fc fusion antigen; not shown: Fc part
# T3 sequence: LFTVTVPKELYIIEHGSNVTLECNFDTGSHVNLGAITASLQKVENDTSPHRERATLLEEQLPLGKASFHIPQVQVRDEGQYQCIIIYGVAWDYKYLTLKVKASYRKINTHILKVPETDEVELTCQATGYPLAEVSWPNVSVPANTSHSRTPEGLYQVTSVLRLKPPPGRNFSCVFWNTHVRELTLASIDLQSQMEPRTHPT
# T4: Mouse PD-L2-Fc (mouse, UniProt Q9WUL5 20-219)
# T4 construct: not shown: Fc part
# T4 sequence (looked up): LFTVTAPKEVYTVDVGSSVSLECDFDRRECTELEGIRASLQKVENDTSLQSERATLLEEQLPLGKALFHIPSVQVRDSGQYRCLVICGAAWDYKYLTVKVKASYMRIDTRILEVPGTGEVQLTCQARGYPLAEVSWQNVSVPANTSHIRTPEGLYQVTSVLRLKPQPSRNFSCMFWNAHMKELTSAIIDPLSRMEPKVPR
# T5: Human PD-L2-HIS (human, UniProt Q9BQ51 20-220)
# T5 construct: also called HIS-tagged protein (human PD-L2); not shown: HIS tag
# T5 sequence: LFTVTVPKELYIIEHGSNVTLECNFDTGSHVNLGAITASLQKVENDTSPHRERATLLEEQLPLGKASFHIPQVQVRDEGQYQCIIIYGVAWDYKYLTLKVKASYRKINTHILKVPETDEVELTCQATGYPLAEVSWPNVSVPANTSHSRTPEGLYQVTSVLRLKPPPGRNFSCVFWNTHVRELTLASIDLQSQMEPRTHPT
# T6: human PD-L2 protein (human, UniProt Q9BQ51 20-220, limits assumed)
# T6 construct: also called analyte (PD-L2)
# T6 sequence: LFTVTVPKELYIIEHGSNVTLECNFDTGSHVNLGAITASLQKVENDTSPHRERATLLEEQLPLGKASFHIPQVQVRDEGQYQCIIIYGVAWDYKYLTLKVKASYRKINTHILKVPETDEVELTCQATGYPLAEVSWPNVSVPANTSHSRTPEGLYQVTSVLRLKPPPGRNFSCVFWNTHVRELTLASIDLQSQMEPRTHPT
# Columns and labels:
# PD-L2 on CHO-PD-L2 cells [1] = target: T1, PD-L2 on CHO-PD-L2 cells; assay: cell-based or functional assay
# PD-L2 on CHO-PD-L2 cells [2] = target: T1, PD-L2 on CHO-PD-L2 cells; assay: cell-based or functional assay; remark: listed apart in the source
# Cyno PD-L2-Fc = target: T2, Cyno PD-L2-Fc; assay: ForteBio Octet, IgG KD, Cyno PD-L2-Fc, avid
# Procedure: (§1) ForteBio K_D measurements—ForteBio affinity measurements were performed on an Octet RED384 generally as previously described (see, e.g., Estep et al., High throughput solution-based measurement of antibody-antigen affinity and epitope binning. Mabs 5(2), 270-278 (2013)). Briefly, ForteBio affinity measurements were performed by loading IgGs on-line onto AHQ sensors. Sensors were equilibrated off-line in assay buffer for 30 min and then monitored on-line for 60 seconds for baseline establishment. Sensors with loaded IgGs were exposed to 100 nM antigen for 3 minutes, and afterwards were transferred to assay buffer for 3 min for off-rate measurement. For monovalent affinity assessment Fabs were used instead of IgGs. For this assessment the unbiotinylated Fc fusion antigen was loaded on-line onto the AHQ sensors. Sensors were equilibrated off-line in assay buffer for 30 min and then monitored on-line for 60 seconds for baseline establishment. Sensors with loaded antigen were exposed to 100 nM Fab for 3 minutes, and afterwards they were transferred to assay buffer for 3 min for off-rate measurement. All kinetics were analyzed using the 1:1 binding model.
# Human PD-L2-Fc [3] = target: T3, Human PD-L2-Fc; assay: ForteBio Octet, IgG KD, Human PD-L2-Fc, avid
# Mouse PD-L2-Fc = target: T4, Mouse PD-L2-Fc; assay: ForteBio Octet, IgG KD, Mouse PD-L2-Fc, avid
# Human PD-L2-HIS = target: T5, Human PD-L2-HIS; assay: IgG KD, Human PD-L2-HIS, monovalent (method not named in the table: ForteBio or MSD-SET)
# human PD-L2 protein = target: T6, human PD-L2 protein; assay: MFI against Ab nM; legend: binding to human PD-L2 protein, maximum fluorescence intensity, ForteBio Octet
# Procedure: Antibody Screening and Characterization. Antibody candidates generated from the presentation methods described above were tested for the capacity to bind to PD-L2 and block its binding to PD-1. 5 µg/mL of antibody was bound to CHO-PD-L2 cells and then recombinant PD-1 (RnD Systems) labelled with Alexa 532 (ThermoFisher) was added for 1 hour. PD-1 maximum fluorescence intensity was measured. Blockade of PD-1 binding was measured by reduction in Alexa 532 fluorescence by flow cytometry. […] The binding and release of the analyte (PD-L2) are recorded by the Octet instrument in real time and then used to calculate the KD, $Kon$, and $Kdis$; results are derived from 2:1 Global Fit Modeling with reference well subtraction. […]
# PD-L2 antibodies avidly bind human PD-L2. […] Antibody subclones were immobilized on Anti-Human Fc Capture (AHC) Biosensors at 100 nM (15 μg/mL), and human PD-L2 protein association and dissociation was tested in dilution series from 30-0.37 nM (FIGS. 4A-B).
# PD-L2 on CHO-PD-L2 cells [4] = target: T1, PD-L2 on CHO-PD-L2 cells; assay: competition assay by flow cytometry: antibody against Biotin-rhPD-1-Fc on PD-L2 expressing cells, Streptavidin-APC; axis 'Antibodies µg (logX)'
# Human PD-L2-Fc [5] = target: T3, Human PD-L2-Fc; assay: ForteBio Octet, Fab KD, Human PD-L2-Fc on sensor, monovalent
# Procedure: as §1
# PD-L2 on CHO-PD-L2 cells [6] = target: T1, PD-L2 on CHO-PD-L2 cells; assay: cell-based or functional assay; remark: listed apart in the source
# PD-L2 on CHO-PD-L2 cells [7] = target: T1, PD-L2 on CHO-PD-L2 cells; assay: cell-based or functional assay; remark: listed apart in the source
# PD-L2 on CHO-PD-L2 cells [8] = target: T1, PD-L2 on CHO-PD-L2 cells; assay: cell surface binding, panel 'Binding Assay PD-L2', MFI against Ab nM (flow cytometry on PD-L2 expressing cells)
Binder,EC50 (read off the curve) (PD-L2 on CHO-PD-L2 cells [2]) [nM],Kd (Cyno PD-L2-Fc) [nM],Kd (Human PD-L2-Fc [3]) [nM],Kd (Mouse PD-L2-Fc) [nM],Kd (Human PD-L2-HIS) [pM],EC50 (read off the curve) (human PD-L2 protein) [nM],Kd (Human PD-L2-Fc [5]) [nM],also measured
"anti-PD-L2 antibody 16510 (antibody, human IgG1, V domains shown) VH: QVQLVQSGAEVKKPGSSVKVSCKASGGTFSSYAISWVRQAPGQGLEWMGGIIPIFGTANYAQKFQGRVTITADESTSTAYMELSSLRSEDTAVYYCARVQKQYTYFDLWGRGTLVTVSS VL: DIQLTQSPSSLSASVGDRVTITCQASQDISNFLNWYQQKPGKAPKLLIYDASNLETGVPSRFSGSGSGTDFTFTISSLQPEDIATYYCQQLVGAPPTFGGGTKVEIK",–,–,–,–,–,–,–,IC50 (read off the curve) (PD-L2 on CHO-PD-L2 cells [4]): ~0.006 µg
"ADI-20816 Fab (Fab, V domains shown) VH: QVQLVQSGAEVKKPGSSVKVSCKASGGTFSSYLIAWVRQAPGQGLEWMGGIIPHFGVANYAQKFQGRVTITADESTSTAYMELSSLRSEDTAVYYCARVPQYHGYFDLWGRGTLVTVSS VL: DIQMTQSPSSVSASVGDRVTITCRASQGISSWLAWYQQKPGKAPKLLIYAASNLQSGVPSRFSGSGSGTDFTLTISSLQPEDFATYYCQQGNSFPTFGGGTKVEIK",–,–,–,–,–,–,0.268,–
"ADI-20810 (anti-PD-L2 antibody 20810), IgG (antibody, V domains shown, Tested as full-length IgG) VH: not shown VL: EIVLTQSPATLSLSPGERATLSCRASQSVSSYLAWYQQKPGQAPRLLIYDASNRATGIPARFSGSGSGTDFTLTISSLEPEDFAVYYCQQVVTLPPTFGGGTKVEIK",~0.2,0.3,0.331,0.503,2.5,~0.7,–,"IC50 (Promega PD-1:PD-L2 bioassay, luciferase) (PD-L2 on CHO-PD-L2 cells [6]): 0.41 nM; EC50 (read off the curve) (PD-L2 on CHO-PD-L2 cells [7]): ~0.4 nM; EC50 (read off the curve) (PD-L2 on CHO-PD-L2 cells [8]): ~0.7 nM"
"ADI-20811 Fab (Fab, V domains shown) VH: QVQLVQSGAEVKKPGSSVKVSCKASGGTFSSAAIHWVRQAPGQGLEWMGGIIPIFGLAQYAQKFQGRVTITADESTSTAYMELSSLRSEDTAVYYCARLPRTWSAFDIWGQGTMVTVSS VL: EIVLTQSPATLSLSPGERATLSCRASQSVSSYLAWYQQKPGQAPRLLIYDASNRATGIPARFSGSGSGTDFTLTISSLEPEDFAVYYCQQVVTLPPTFGGGTKVEIK",–,–,–,–,–,–,0.21,–

# Now from value to binder, other results behind:
EC50 (read off the curve) (PD-L2 on CHO-PD-L2 cells [2]) [nM],Kd (Cyno PD-L2-Fc) [nM],Kd (Human PD-L2-Fc [3]) [nM],Kd (Mouse PD-L2-Fc) [nM],Kd (Human PD-L2-HIS) [pM],EC50 (read off the curve) (human PD-L2 protein) [nM],Kd (Human PD-L2-Fc [5]) [nM],Binder,also measured
~0.3,0.296,0.116,21.6,52,~0.9,–,"ADI-20816 (anti-PD-L2 antibody 20816), IgG (antibody, V domains shown, Tested as full-length IgG; Clone family 55-g1) VH: QVQLVQSGAEVKKPGSSVKVSCKASGGTFSSYLIAWVRQAPGQGLEWMGGIIPHFGVANYAQKFQGRVTITADESTSTAYMELSSLRSEDTAVYYCARVPQYHGYFDLWGRGTLVTVSS VL: DIQMTQSPSSVSASVGDRVTITCRASQGISSWLAWYQQKPGKAPKLLIYAASNLQSGVPSRFSGSGSGTDFTLTISSLQPEDFATYYCQQGNSFPTFGGGTKVEIK","IC50 (Promega PD-1:PD-L2 bioassay, luciferase) [Cont'd] (PD-L2 on CHO-PD-L2 cells [1]): 0.38 nM"
–,–,–,–,–,–,0.267,"ADI-20810 Fab (Fab, V domains shown) VH: not shown VL: EIVLTQSPATLSLSPGERATLSCRASQSVSSYLAWYQQKPGQAPRLLIYDASNRATGIPARFSGSGSGTDFTLTISSLEPEDFAVYYCQQVVTLPPTFGGGTKVEIK",–
~0.2,0.231,0.248,0.259,8.5,~0.3,–,"ADI-20811 (anti-PD-L2 antibody 20811), IgG (antibody, V domains shown, Tested as full-length IgG) VH: QVQLVQSGAEVKKPGSSVKVSCKASGGTFSSAAIHWVRQAPGQGLEWMGGIIPIFGLAQYAQKFQGRVTITADESTSTAYMELSSLRSEDTAVYYCARLPRTWSAFDIWGQGTMVTVSS VL: EIVLTQSPATLSLSPGERATLSCRASQSVSSYLAWYQQKPGQAPRLLIYDASNRATGIPARFSGSGSGTDFTLTISSLEPEDFAVYYCQQVVTLPPTFGGGTKVEIK","IC50 (Promega PD-1:PD-L2 bioassay, luciferase) (PD-L2 on CHO-PD-L2 cells [6]): 0.24 nM"

# Reference: patent US12428489 (University of Texas, dated 2025)
